Common to all, as to assay: kinetics of peptide on STC43H11-1, separate assay, method not named
Experiment [1] addresses T1, BTN1A1 peptide 4 Mutant 9 (D369A) (human).
T1 construct: The entry already carries the mutation; also called BTN1A1-pep4- Mutant 9
T1 peptide: EVEVGDRTAWAIGVC

Experiment [2] concerns the target T2, BTN1A1 peptide 4 Mutant 5 (G365A) (human).
T2 construct: The entry already carries the mutation; also called BTN1A1-pep4- Mutant 5
T2 peptide: EVEVADRTDWAIGVC

A further experiment deals with T3, TRIM11 peptide.
T3 peptide: EVEVGDRTSWALGVC

The target in experiment [3] is T4, BTN1A1 peptide 4 Mutant 6 (D366A) (human).
T4 construct: The entry already carries the mutation; also called BTN1A1-pep4- Mutant 6; mutant peptide #6
T4 peptide: EVEVGARTDWAIGVC

Another experiment concerns the target T5, BTN1A1 Peptide 4 (human).
T5 construct: also called BTN1A1-pep4- WT; Pep4
T5 peptide: EVEVGDRTDWAIGVC

B1: STC43H11-1 (antibody, V domains shown)
VH: QSLEESGGRLVTPGGSLTLTCTVSGIDLSSYAMGWVRQAPGEGLEWIGSIGTGGGTGYASWAKGRFTISKTSTTVDLKMTSLTASDTATYFCATSNLWGPGTLVTVSS
VL: QVLTQTASPVSAAVGGTVTINCQASQSVYNNNRCSWFQQKPGQPPKRLIYHTSTLDSGVPSRFKGSGSGTQFTLTISDVQCDDAATYYCLGNYDCSRADCAAFGGGTEVVVK
notes: From immunized New Zealand rabbits; IgG heavy chain and Kappa light chain; also called clone #43H11; Clone 43H11
Turning to B1, the Kd in experiment [1] came to 39.1 nM; in experiment [2], 1.72 nM; with TRIM11 peptide, 621 nM; in experiment [3], 13.5 nM; in the experiment with BTN1A1 Peptide 4, 0.0844 nM. Also, the koff stood at 0.0101 s⁻¹ in experiment [1]; 0.000146 s⁻¹ in experiment [2]; 0.1 s⁻¹ with TRIM11 peptide; 0.00082 s⁻¹ in experiment [3]; 1.62e-05 s⁻¹ in the experiment with BTN1A1 Peptide 4. Further, the kon in experiment [1] turned out to be 258000 M⁻¹ s⁻¹; in experiment [2] it was 84800 M⁻¹ s⁻¹; in the experiment with TRIM11 peptide, 162000 M⁻¹ s⁻¹; in experiment [3] it was 60900 M⁻¹ s⁻¹; in the experiment with BTN1A1 Peptide 4, 192000 M⁻¹ s⁻¹.

In general, Kd refers to the equilibrium constant for the complex coming apart. In general, koff refers to the first-order rate constant of dissociation. Higher therefore signals a short-lived complex. In general, kon refers to a measure of how fast the partners come together. The low end stands for slower complex formation, the high end for faster complex formation.

Values taken from patent US20250189530A1 (STCUBE, published 2025).
